In US20150344570A1 (published 2015):

T1: FcγRIIa H (human, UniProt P12318 34-217)
T1 construct: extracellular domain; also called FcγRIIa type H; 2aH; not shown: His tag at the C terminus
T1 sequence (looked up): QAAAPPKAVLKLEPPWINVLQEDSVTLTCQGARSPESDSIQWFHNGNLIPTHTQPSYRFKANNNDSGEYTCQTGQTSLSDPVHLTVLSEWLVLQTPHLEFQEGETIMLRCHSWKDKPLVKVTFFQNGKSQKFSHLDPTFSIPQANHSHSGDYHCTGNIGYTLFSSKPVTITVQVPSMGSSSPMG

T2: FcγRIIb (human, UniProt P31994 43-217)
T2 construct: extracellular domain; also called 2b; not shown: His tag at the C terminus
T2 sequence (looked up): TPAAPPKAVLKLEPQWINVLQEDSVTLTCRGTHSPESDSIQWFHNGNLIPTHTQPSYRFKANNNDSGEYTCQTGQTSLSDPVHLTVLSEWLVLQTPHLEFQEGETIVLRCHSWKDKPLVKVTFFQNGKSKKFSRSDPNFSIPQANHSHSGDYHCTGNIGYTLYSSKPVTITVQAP

T3: FcγRIIb, extracellular domain with C-terminal His tag (human, UniProt P31994 43-217)
T3 construct: extracellular domain; also called 2b; FcgRIIb; not shown: His tag at the C terminus
T3 sequence (looked up): T2 sequence (looked up)

T4: FcγRIIa H (FcgRIIa type H, His at position 131), extracellular domain with C-terminal His tag (human, UniProt P12318 34-217)
T4 construct: extracellular domain; also called 2aH; FcgRIIa H; not shown: His tag at the C terminus
T4 sequence (looked up): T1 sequence (looked up)

B1: GpH7-A5/GpH7-B3 variant A330_11K/GpL16-k0 (antibody, human IgG1, kappa)
heavy 1: not shown
heavy 2: not shown
light: DIVMTQSPLSLPVTPGEPASISCQASESLVHSNRNTYLHWYLQKPGQSPQLLIYKVSNRFSGVPDRFSGSGSGTDFTLKISRVEAEDVGVYYCSQNTHVPPTFGQGTKVEIERTVAAPSVFIFPPSDEQLKSGTASVVCLLNNFYPREAKVQWKVDNALQSGNSQESVTEQDSKDSTYSLSSTLTLSKADYEKHKVYACEVTHQGLSSPVTKSFNRGEC
notes: Heterodimerized IgG1; mutation in the GpH7-B3 chain only; also called He Ab
B2: GpH7-A5/GpH7-B3 variant E333_13S/GpL16-k0 (antibody, human IgG1, kappa)
heavy 1: not shown
heavy 2: not shown
light: B1 light
notes: as for B1
B3: GpH7-A5/GpH7-B3 variant A330_16H/GpL16-k0 (antibody, human IgG1, kappa)
heavy 1: not shown
heavy 2: not shown
light: B1 light
notes: as for B1
B4: GpH7-A5/GpH7-B3 variant D270_10E/GpL16-k0 (antibody, human IgG1, kappa)
heavy 1: not shown
heavy 2: not shown
light: B1 light
notes: as for B1
B5: GpH7-A5/GpH7-B3 variant E333_08L/GpL16-k0 (antibody, human IgG1, kappa)
heavy 1: not shown
heavy 2: not shown
light: B1 light
notes: as for B1
B6: GpH7-A5/GpH7-B3 variant E333_04F/GpL16-k0 (antibody, human IgG1, kappa)
heavy 1: not shown
heavy 2: not shown
light: B1 light
notes: as for B1
B7: GpH7-A5/GpH7-B3 variant A330_12R/GpL16-k0 (antibody, human IgG1, kappa)
heavy 1: not shown
heavy 2: not shown
light: B1 light
notes: as for B1
B8: GpH7-A5/GpH7-B3 variant A330_19Q/GpL16-k0 (antibody, human IgG1, kappa)
heavy 1: not shown
heavy 2: not shown
light: B1 light
notes: as for B1
B9: GpH7-A5/GpH7-B3 variant E333_09D/GpL16-k0 (antibody, human IgG1, kappa)
heavy 1: not shown
heavy 2: not shown
light: B1 light
notes: as for B1
B10: GpH7-A5/GpH7-B3 variant K334_02A/GpL16-k0 (antibody, human IgG1, kappa)
heavy 1: not shown
heavy 2: not shown
light: B1 light
notes: He Ab; alteration in one H chain only; also called He Ab
B11: GpH7-A5/GpH7-B3 variant P331_03V/GpL16-k0 (antibody, human IgG1, kappa)
heavy 1: not shown
heavy 2: not shown
light: B1 light
notes: as for B10
B12: GpH7-A5/GpH7-B3 variant P331_04F/GpL16-k0 (antibody, human IgG1, kappa)
heavy 1: not shown
heavy 2: not shown
light: B1 light
notes: as for B10
B13: GpH7-A5/GpH7-B3 variant L328_09D/GpL16-k0 (antibody, human IgG1, kappa)
heavy 1: not shown
heavy 2: not shown
light: B1 light
notes: as for B10
B14: GpH7-A5/GpH7-B3 variant L328_10E/GpL16-k0 (antibody, human IgG1, kappa)
heavy 1: not shown
heavy 2: not shown
light: B1 light
notes: as for B10
B15: GpH7-A5/GpH7-B3 variant N325_09D/GpL16-k0 (antibody, human IgG1, kappa)
heavy 1: not shown
heavy 2: not shown
light: B1 light
notes: as for B10
B16: GpH7-A5/GpH7-B3 variant K334_10E/GpL16-k0 (antibody, human IgG1, kappa)
heavy 1: not shown
heavy 2: not shown
light: B1 light
notes: as for B10
B17: GpH7-A5/GpH7-B3 variant K334_05P/GpL16-k0 (antibody, human IgG1, kappa)
heavy 1: not shown
heavy 2: not shown
light: B1 light
notes: as for B10
B18: GpH7-A5/GpH7-B3 variant P331_07I/GpL16-k0 (antibody, human IgG1, kappa)
heavy 1: not shown
heavy 2: not shown
light: B1 light
notes: as for B10
B19: GpH7-A5/GpH7-B3 variant N325_06M/GpL16-k0 (antibody, human IgG1, kappa)
heavy 1: not shown
heavy 2: not shown
light: B1 light
notes: as for B10
B20: GpH7-A5/GpH7-B3 variant S337_18N/GpL16-k0 (antibody, human IgG1, kappa)
heavy 1: not shown
heavy 2: not shown
light: B1 light
notes: as for B10

What follows are binders tested against T1, FcγRIIa H (assay: SPR (Biacore), antibody captured, FcγR as analyte; binding relative to GpH7-A5/GpH7-B3/GpL16-k0 = 100).
Protocol: (§1) The heterodimerized antibodies He Abs in which one of the H chains was introduced with an alteration were assayed for their binding activities to each activating FcγR and inhibitory FcγR according to the method described in Example 4. […] The activating FcγRs in FIGS. 26, 27, 28, and 29 are FcγRIa, FcγRIIa (R), FcγRIIa (H), and FcγRIIIa, respectively.
(§2) Analysis of interaction between objective antibody and the FcγR was carried out using Biacore T100 (GE Healthcare). HBS-EP+ (GE Healthcare) was used as the running buffer, and the measurement temperature was set to 25° C. Chips produced by immobilizing the antigen peptide by the amine coupling method to a Series S Sencor Chip CM5 (GE Healthcare), or alternatively, chips produced by allowing preliminarily biotinylated antigen peptides to interact with and immobilize onto a Series S Sensor Chip SA (certified) (GE Healthcare) were used. Antibodies of interest were captured onto an antigen peptide-immobilized chip, and allowed to interact to each FcγR diluted with running buffer. To regenerate and repeatedly use the chip, the antibodies captured on the chip were washed off by reacting 10 mM glycine-HCl, pH 1.5.

Row | He/Con_2aH | Binder
1 | 109 % of control | B1
2 | 101 % of control | B2
3 | 101 % of control | B3
4 | 102 % of control | B4
5 | 102 % of control | B5
6 | 102 % of control | B6
7 | 108 % of control | B7
8 | 102 % of control | B8
9 | 103 % of control | B9

Each binder was assayed against T2, FcγRIIb in the same assay as above.
Protocol: as §1, §2

Row | He/Con_2b | Binder
10 | 95 % of control | B1
11 | 81.8 % of control | B2
12 | 87.6 % of control | B3
13 | 76.5 % of control | B4
14 | 95 % of control | B5
15 | 94.6 % of control | B6
16 | 84.8 % of control | B7
17 | 90.8 % of control | B8
18 | 94.3 % of control | B9

The binders below were run against T3, FcγRIIb, extracellular domain with … (assay: SPR (Biacore), relative binding, GpH7-A5/GpH7-B3/GpL16-k0 = 100).

Row | He/Con_2b | Binder
19 | 108 % of control | B10
20 | 119 % of control | B11
21 | 110 % of control | B12
22 | 199 % of control | B13
23 | 172 % of control | B14
24 | 124 % of control | B15
25 | 114 % of control | B16
26 | 105 % of control | B17
27 | 114 % of control | B18
28 | 217 % of control | B19
29 | 103 % of control | B20

The binders below were run against T4, FcγRIIa H (FcgRIIa type H, His at …) in the same assay as above.

Row | He/Con_2aH | Binder
30 | 97 % of control | B10
31 | 82.5 % of control | B11
32 | 84.7 % of control | B12
33 | 58.5 % of control | B13
34 | 55.5 % of control | B14
35 | 53.1 % of control | B15
36 | 98.2 % of control | B16
37 | 97.6 % of control | B17
38 | 77.4 % of control | B18
39 | 48.2 % of control | B19
40 | 99.8 % of control | B20
